The values below come from patent US12371675B2, “Process and microorganism for synthesis of adipic acid from carboxylic acids” (THE GOVERNING COUNCIL OF THE UNIVERSITY OF TORONTO, priority 2015, dated 2025).

The subject of data set [1] is O=C(O)CCCCCO. The data set is described as follows: purified protein, by the assay type. To be noted: pH 7.5.
Data set [2] has as its system O=C(O)CCCO. The data set is described as follows: purified protein, by the assay type. To be noted: other: ATP/NADPH dependent reduction; pH 7.5.
For data set [3], the system named is O=CCCCCC=O. The experiment in a line: AR kinetics, aldehyde reduction followed by NAD(P)H oxidation. Format: biochemical, Pseudomonas aeruginosa. To be noted: other: adipaldehyde; cofactor NADH; 1,8% DMSO; pH 7.5. An excerpt: (§1) 28 aldehyde reductases from different bacteria were cloned and overexpressed in E. coli. Enzymes purified using affinity chromatography on Ni-NTA resin were screened for reductase activity with adipaldehyde and butyraldehyde in presence of both NADPH and NADH (Table 5). Butyraldehyde was used as a substrate substitute for 4-oxo-butanal, which is not commercially available. Reactions were followed spectrophotometrically, by cofactor oxidation at 340 nm.
(§2) Enzyme activity of purified ARs was measured spectrophotometrically in 96-well plates Reaction mixtures contained 100 mM HEPES buffer (pH 7.5), 0.4 mM NADH/NADPH, 10 mM adipaldehyde or butylaldehyde, and proteins (10 μg for adipaldehyde screen, 2 μg for butyraldehyde screen) in a final volume of 200 μL Reaction mixture for adipaldehyde screening contained 1.8% DMSO. Enzyme reactions were monitored by following the decrease in absorbance at 340 nm (ε340 nm=6,220/M·cm) due to oxidation of NAD(P)H to NAD(P)+.
(§3) ARs RHA1_ro05279, PA1146, SC00229, PP_3370 were characterised for saturation with adipaldehyde, PP_3370, PSPTO_2097, RHA1_ro05279, SC00229, TM_0111, PA1146 were characterised for butyraldehyde saturation (Table 10). […] For both substrates maximal kcat/Km with minimal Km values was shown by AR PP 3370 from Pseudomonas putida.

The subject of data set [4] is CCCC=O. The data set is described as above. Format: biochemical, Pseudomonas aeruginosa. As to conditions: other: butyraldehyde, pH 7.5.
Excerpt: as §1, §2, §3

Data set [5] has as its system CCCC=O. Described as above. Format: biochemical, Pseudomonas syringae. To be noted: other: butyraldehyde; cofactor NADPH; pH 7.5.
Excerpt: as §1, §2, §3

Turning to “Mycobacterium paratuberculosis carboxylate reductase MAP_1040c, SEQ ID NO: 38 (Mycobacterium avium subsp. paratuberculosis MAP4)”, the Km (as a rule, the concentration of substrate that gives half-maximal velocity) in data set [1] turned out to be 70.1 ± 7.04 mM.

In the case of “Mycobacterium smegmatis carboxylate reductase MSMEG_2956, SEQ ID NO: 70 (Mycolicibacterium smegmatis MC2 155)”, in data set [2], the Km is reported as 69.57 ± 4.16 mM; the kcat – broadly, the maximal rate divided by the concentration of active sites – came to 0.513 ± 0.017 s⁻¹; the catalytic efficiency (kcat/Km) (commonly the second-order rate constant that governs catalysis at low substrate concentration) came to 7.37 ± 0.24 M⁻¹ s⁻¹.

In the case of “Mycobacterium smegmatis carboxylate reductase MSMEG_5739, SEQ ID NO: 37 (Mycolicibacterium smegmatis MC2 155)”, in data set [2], the Km was determined as 37.84 ± 2.39 mM, the kcat was determined as 0.51 ± 0.017 s⁻¹ and the kcat/Km was 13.5 ± 0.45 M⁻¹ s⁻¹.

For “Mycobacterium smegmatis carboxylate reductase MSMEI_5586, SEQ ID NO: 35 (Mycolicibacterium smegmatis MC2 155)”, in data set [2], the Km came out at 19.63 ± 4.88 mM, the kcat amounted to 0.152 ± 0.013 s⁻¹ and the kcat/Km was 7.74 ± 0.66 M⁻¹ s⁻¹.

“Pseudomonas aeruginosa aldehyde reductase PA1146, SEQ ID NO: 43 (Pseudomonas aeruginosa PAO1)”: in data set [3], the Km is given as 9.0 ± 1.99 mM, the turnover number (kcat) is 5.45 ± 0.56 s⁻¹ and the kcat/Km result was “(6.02 ± 0.06) × ×10^2 M^−1 · s^−1”. For the same substance, in data set [4] (cofactor NADH), the Km came to 15.6 ± 5.94 mM, the kcat stood at 9.01 ± 01.9 s⁻¹ and the kcat/Km result is reported as “(5.76 ± 1.22) × ×10^2 M^−1 · s^−1”. Further, in data set [4] (cofactor NADPH), the Michaelis-Menten constant (Km) stood at 3.37 ± 0.9 mM, the kcat came to 0.84 ± 0.08 s⁻¹ and the kcat/Km entry was “(2.49 ± 0.24) × ×10^2 M^−1 · s^−1”.

In the case of “Pseudomonas syringae aldehyde reductase PSPTO_2097, SEQ ID NO: 46 (Pseudomonas syringae pv. tomato str. DC3000)”, in data set [5], the Km was 10.3 ± 1.06 mM, the kcat is 12.2 ± 0.63 s⁻¹ and the kcat/Km result is recorded as “(1.18 ± 0.06) × ×10^3 M^−1 · s^−1”.
